Results reported in the supplement of paper PMC10567573.

B1: SNAP91 (parent)
chain: FAAPSPATTASPAKVDSSGVIDLF

Variants of: B1
Assay: protein stability index of a GFP-peptide fusion (GPS, HEK-293T) (PSI 1-6); higher = more stable
Settings: c terminus: a fixed tail appended
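Also: lentivirally expressed fusions sorted by FACS into six bins by GFP to DsRed ratio, PSI derived from sequencing read proportions per bin multiplied by bin number.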

In order of rising protein stability index:
1. FAAPSPAFTASPAKVDSSGVIDLF  1.33
2. FAAPSPATTGSPAKVDSSGVIDLF  1.64
3. FAAPSPATTYSPAKVDSSGVIDLF  1.72
4. FAAPSPCTTASPAKVDSSGVIDLF  1.75
5. FAAPSPATTASFAKVDSSGVIDLF  1.8
6. FAAPSPATTASPYKVDSSGVIDLF  1.83
7. FAAPSPATTASCAKVDSSGVIDLF  1.85
8. FAAPSPLTTASPAKVDSSGVIDLF  1.9
9. FAAPSPATTASGAKVDSSGVIDLF  1.92
10. FAAPSPATTASPIKVDSSGVIDLF  1.92
11. FAAPSPATTFSPAKVDSSGVIDLF  1.92
12. FAAPSPAYTASPAKVDSSGVIDLF  1.94
13. FAAPSPATTCSPAKVDSSGVIDLF  1.94
14. FAAPSPATTASKAKVDSSGVIDLF  1.96
15. FAAPSPATTASYAKVDSSGVIDLF  1.97
16. FAAPSPATTASPGKVDSSGVIDLF  1.98
17. FAAPSPATTRSPAKVDSSGVIDLF  1.99
18. FAAPSPATTASPFKVDSSGVIDLF  2.01
19. FAAPSPATTASWAKVDSSGVIDLF  2.04
20. FAAPSPATTASIAKVDSSGVIDLF  2.08
21. FAAPSPATTASVAKVDSSGVIDLF  2.09
22. FAAPSPITTASPAKVDSSGVIDLF  2.1
23. FAAPSPTTTASPAKVDSSGVIDLF  2.11
24. FAAPSPATTASPWKVDSSGVIDLF  2.12
25. FAAPSPATTASTAKVDSSGVIDLF  2.15
26. FAAPSPATTASMAKVDSSGVIDLF  2.17
27. FAAPSPATTASAAKVDSSGVIDLF  2.19
28. FAAPSPATTASRAKVDSSGVIDLF  2.2
29. FAAPSPAETASPAKVDSSGVIDLF  2.23
30. FAAPSPMTTASPAKVDSSGVIDLF  2.23
31. FAAPSPATTKSPAKVDSSGVIDLF  2.23
32. FAAPSPARTASPAKVDSSGVIDLF  2.24
33. FAAPSPATTMSPAKVDSSGVIDLF  2.24
34. FAAPSPDTTASPAKVDSSGVIDLF  2.25
35. FAAPSPATTASPSKVDSSGVIDLF  2.25
36. FAAPSPATTASHAKVDSSGVIDLF  2.27
37. FAAPSPALTASPAKVDSSGVIDLF  2.27
38. FAAPSPATTQSPAKVDSSGVIDLF  2.27
39. FAAPSPATTASPCKVDSSGVIDLF  2.29
40. FAAPSPATTHSPAKVDSSGVIDLF  2.29
41. FAAPSPAGTASPAKVDSSGVIDLF  2.3
42. FAAPSPATTASPHKVDSSGVIDLF  2.3
43. FAAPSPATTASPMKVDSSGVIDLF  2.31
44. FAAPSPATTASSAKVDSSGVIDLF  2.32
45. FAAPSPATTSSPAKVDSSGVIDLF  2.32
46. FAAPSPAWTASPAKVDSSGVIDLF  2.33
47. FAAPSPATTASPTKVDSSGVIDLF  2.33
48. FAAPSPATTASPRKVDSSGVIDLF  2.34
49. FAAPSPRTTASPAKVDSSGVIDLF  2.36
50. FAAPSPATTTSPAKVDSSGVIDLF  2.36
51. FAAPSPATTASPQKVDSSGVIDLF  2.37
52. FAAPSPATTASPNKVDSSGVIDLF  2.38
53. FAAPSPAKTASPAKVDSSGVIDLF  2.42
54. FAAPSPATTISPAKVDSSGVIDLF  2.42
55. FAAPSPATTASPLKVDSSGVIDLF  2.43
56. FAAPSPNTTASPAKVDSSGVIDLF  2.46
57. FAAPSPATTASLAKVDSSGVIDLF  2.49
58. FAAPSPSTTASPAKVDSSGVIDLF  2.49
59. FAAPSPASTASPAKVDSSGVIDLF  2.52
60. FAAPSPVTTASPAKVDSSGVIDLF  2.53
61. FAAPSPAQTASPAKVDSSGVIDLF  2.54
62. FAAPSPYTTASPAKVDSSGVIDLF  2.54
63. FAAPSPACTASPAKVDSSGVIDLF  2.56
64. FAAPSPATTESPAKVDSSGVIDLF  2.56
65. FAAPSPATTDSPAKVDSSGVIDLF  2.57
66. FAAPSPANTASPAKVDSSGVIDLF  2.58
67. FAAPSPATTNSPAKVDSSGVIDLF  2.59
68. FAAPSPATTASDAKVDSSGVIDLF  2.6
69. FAAPSPATTASNAKVDSSGVIDLF  2.6
70. FAAPSPATTASQAKVDSSGVIDLF  2.6
71. FAAPSPATTASPEKVDSSGVIDLF  2.61
72. FAAPSPAATASPAKVDSSGVIDLF  2.62
73. FAAPSPPTTASPAKVDSSGVIDLF  2.62
74. FAAPSPADTASPAKVDSSGVIDLF  2.65
75. FAAPSPFTTASPAKVDSSGVIDLF  2.65
76. FAAPSPKTTASPAKVDSSGVIDLF  2.65
77. FAAPSPAMTASPAKVDSSGVIDLF  2.7
78. FAAPSPHTTASPAKVDSSGVIDLF  2.7
79. FAAPSPATTASPDKVDSSGVIDLF  2.71
80. FAAPSPATTLSPAKVDSSGVIDLF  2.74
81. FAAPSPATTASPVKVDSSGVIDLF  2.79
82. FAAPSPQTTASPAKVDSSGVIDLF  2.84
83. FAAPSPATTWSPAKVDSSGVIDLF  2.84
84. FAAPSPAITASPAKVDSSGVIDLF  2.85
85. FAAPSPAVTASPAKVDSSGVIDLF  2.85
86. FAAPSPGTTASPAKVDSSGVIDLF  2.85
87. FAAPSPATTVSPAKVDSSGVIDLF  2.94
88. FAAPSPATTASEAKVDSSGVIDLF  2.97
89. FAAPSPWTTASPAKVDSSGVIDLF  3
90. FAAPSPATTASPAKEDSSGVIDLF  3.03
91. FAAPSPATTASPKKVDSSGVIDLF  3.05
92. FAAPSPETTASPAKVDSSGVIDLF  3.06
93. FAAPSPATTASPPKVDSSGVIDLF  3.09
94. FAAPSPAHTASPAKVDSSGVIDLF  3.12
